{"source": "the DeepSol protein solubility set", "data": [{"test": "soluble on expression in E. coli; label from the status in PepcDB or PDB records", "values": [{"sequence": "MSLRHLLRSLIGKTLAFFVEREDDNLTRVREHLMDLLDARPSPVRAQNLRSARQLLHKQADVFNRAFQAALQTSMDEEMRAVLPEAPASAVANDTSADPLDGMTLSLIDVCEVERILLVDRVAQRFTAHYDASVSALTQRLGVLLGRDVAALSSNPFRPEVFVRAFLLAWENSGLDKQATEDLMLSLDPLHSIDLTPLYADLNAMLTHAGIAAQPARRVIKSEGAGSSYLPLSPASAHAHLQGGEMRSGLGDLEPERARSAWDALAPAGRSIASHARQFLQRLGLASSSGQNDSGAGEGADWTPADGHETRTYLASADPEFMGYLGDLQAGAQAESAERILPGQHPGDRNVLRQMRDRDEVRRAPELDRGTVDALAEVFDFVFADQAIPVQMKFVIGRLQIPVLKAAMIDRDFFLSADHPARRLVDTLAQASIAWAPEKGESDPLYVRIENTVQRVLTEFEDDLALFSELLAEFTEFLFETEQQAQGRIEPAVDHERVGESFEQALAHADEVIHARIAALPSELPLAPFLAPFLTTQWREVLARAWLNVQASAAPWDSAVTSMDQLIWSTQPKTRIEERRQLVALLPELVRRLNAGLDAIEWVGEPRATFTRRLIATHMMAIRMTQAASVDSMSAALEANAGKEAMNELEQRRSGQLAGSVDDFDAMAQSFTRGLWFDFLLDEHTQHRCLLSWVSPMRTRLLFTNRDGFDAFVRSEREVAALLRHGRLHVIDQQPIVSRALDRIMSEGERKQEGHHHHHH", "soluble on expression in E. coli": "soluble"}, {"sequence": "MSLRIESGVCYVINEFCALGNTYMPIDKLVKNCINVLNVKKEEVEKAIYECTLSQKIKVEIINGENCVFTMEYYYCEIGITRKIITLAYDSYKSLEIDVDQKIIQFENENKIKFAPSQVEAIEGAFSNGIEVITGGPGTGKTTIIRCITYIFEELNMKVFMAAPTGRAAKRMSESTGREAKTIHRMLELGYEDEVFFDNNNYSTLQCDVVIIDEASMIDVVLMNSLLKSIGMGTRVIIVGDVDQLPSVGPGNVLRDIIESKCVKVIRLNNIFRQAKESMITVNAHKINSGEMPLLNKKDKDFYFIREDNAEAITNTIISLVYKRLPLFNKSWKAARDIQVLAPMKKGIAGVANLNVSLQSIINPPHKSKDEIKFRDNIFRVGDKVMQIKNNYMLKEGHHHHHH", "soluble on expression in E. coli": "not soluble"}, {"sequence": "MSLRIPDKNNLMIYELLLRDFTATGDLNGAMEKIGYLKSLGFNAVELMPVQEFDGNDSWGYNPCFHFALDKAYGTDHMYKAFIDKCHEVGMAVLFDVVYNHASGSHPFARLYWDTKNNRTAADNPWFNVKEPHPYGVFHDFNHDSPLVRAFVKRNLKFLLEEYRIDGFRFDMTKGFTQNSSTEATAGSYDASRIAILKDYNETVREVNPEAVVILEHFCDEKEESELAEEGMQLWRNLNNAYCQSAMGYPSNSDFTPLVTFGTTMPYGGWVGFMESHDEERTAFKQIAYGEGPLKSDINVRMKQLAANASFFFTAPGPKMVWQFGEMGYDVSIEEGGRTGRKPLHWEYLDNEARKGLCNTYAKLLKLRREHSELFNPGSTFSWLVKTANWTGGRFLTLAATNGKRLVVVGNFTAKPIEAITSFPVTGVWTNYLDGTKLHVTSIPTGLMIPAHECRVYINEGHHHHHH", "soluble on expression in E. coli": "not soluble"}, {"sequence": "MSLRKGSMRITPLGGLGEIGRNMNVIEYNGHLLLIDCGVLFPEEEQPGVDLILPDFSYIKNRLDKVDALVLTHGHEDHIGGVPYLLKLRPDIPLIGSKLTLAFVDAKCKEHHQNPTKVEVAGREKLKVGPFDLEFVNVTHSIPDALAVYVKTPAGSLIDTGDIKLDQLPLDHRITDLVEFGKIGEKGVDLLMMDSTNAEVPGFVKPETSIGPALDQAFAQATRKIIVASFSSHVHRVQQVVDAAHKYGRKVVFVGRSMVRNMSIAADLGYLHIPEGTVVDLKQANDIQDDKLVFMCTGSQGEPMAALGRIADGNHRDIHINEFDTVILASSLIPGNEHGVYKVINKLVQLGAKVVNRDNAAVHVSGHCNEGELLYMYNIVKPKCAMPIHGENRHLVANGLIAVKTGVDPQNVVLAEDGDVVDLYHGRAAVVGSVPCGYVYVDGDSVGELTDDELEKRRILGTEGFVSAFVVVDTDNHEVVTGPKIYLNAVAEDESEFDKVRHQIVEQLNDQMMQGTRDTYKLQQTMRRTLGSWVARQLHRKPMIVPVVADIAQDVETVETKEGHHHHHH", "soluble on expression in E. coli": "soluble"}, {"sequence": "MSLRLKTILLTTMATGSFLCEPVAAMCIEPPATPDMGWFLKKKKKSNPQDSIKVKNEYEKLTGSDSVVRRGMFNVYQKKNDYYFEIPSTLLERDMLVVNKLQRVPAELNEAGVNRGTNYENQMIRFELDKSANKLLIRQSRPLPISPSEDAISQSVKDNYISPLIAGFKVEAYNNDSTSILIKVNDIYDGTETSINNVFTNINLGTSAIKNLSRILSIKSFDNNVVATSELTTRVTEGTTTIYVTVEVSSSILLLPEVPMTGRLDNPRVGYFTNPLTNFSDGQQRVNKKQFITRWRLEPRPEDRAAYLRGELVEPRKPIVFYIENSTPYRWRKYIKQGIEDWQVAFERAGFKNAIIAKDITEDMEVDMDDVNYSVLTYAASTKANAMGPSILDPRSGEILEADIMWWHNVLSMLQEWITVQTGVVRPEAREGHHHHHH", "soluble on expression in E. coli": "not soluble"}, {"sequence": "MSLRLLRVVGCPEWVIDHSLAVRKKALELSRELPVDMKLVEEGAILHDIGRCRTSGVEHAVEGARILEGFGYPPEVVRIVERHVGAGIPPEEAKALGLPPGDYMPRTLEEKIVAHADNLINGSDEVDIDFVIKKWSDRLGADHPSIESLKRLHEELLGHL", "soluble on expression in E. coli": "not soluble"}, {"sequence": "MSLRPEFQGLQGGLFSSVKKADVGTAVLDLMANGVDMLCWADPFFPDPVLPEHISQAVIKSMENGSASHYTMPIGNPELKEKIALKLQRYNNLTVEAQRNILITPGSDSGLLFAMMPFINNDDEVLIHSPSYPSNFLNVELLGGKPISVELKAENNFQIDIKDFENKITEKTKMVILTNPNNPTGTVLRRESLQAIADFIIAHDLILVVDQAFEDAIFDEIEFISIASLPGMWERTVSVFSFSKGMGLSGFRVGYLVADAQIVDVLFGCTVNVVGATNTSSQAGMIAALDEPSFMGEYTQIFERRRKVVFEMMNAIPGVCMVMPESGFLSWIDISKLGTSTFICDYLLQHAHVMVNSGVPYGQGGEGYIRLVHGCYKDDEKLYAVLTRIQQALMQLAKEKGICHGEGHHHHHH", "soluble on expression in E. coli": "soluble"}, {"sequence": "MSLRPQAPMTQTPMAQASTSTTTPQKIVLYMATTTSVKDTGLLDVLIPDFEKWAASRGYNIEVRYTAVGTGQALAMAARGDVDVVIVHAPSLEKQYLENGTLKCRDVIAYNFFIIVGPRDDPAGAKSLTATEAFRRIAEAKAPFVSRGDRSGTHLMELSLWRRAIGREPDPKNDTWYISAGAGMGQTLLLANEKSAYTLSDTGTWLRYRDKLPQLDVIVQAAPDLINIYSFSIVKLSNATRLMAQYMKTRGLEVIGNLTINGVSLFTPINKADPKAMEWIKTAIFGPSCVEREGHHHHHH", "soluble on expression in E. coli": "soluble"}, {"sequence": "MSLRQRLTRRDPVSRLPNREQFQSDLYDLADENPGERRVLVLVDAVDMTVAHELTLAMGLAPFETIVRFLAQQLLAYLGRHVRVYHVSVKRFGFLLPAAPGIERFLESLVRRLRRQPPGLELPMIPGVCAGTVEFSTDRDAVPDVLRKAMFALELATLNRSTWAPYDVVRDQAYRRAFNLASDISEALDSGQIYLMFQPRFALPDGAQVSAEALIRWDHPWLGPISPAEFIPVMERNALIHRVTHWVINAVLGKLQAWSDGEVQRLSINLSPQDFEDQDIADVLKAACRRHGIEPHRLEVEITEGAWLRSNPRVLDQLSKIRALGMDVAIDDFGTGYSNFAYLHQIPANVVKLDKSMVTDLESSAQHQKITRSVIALARELGYRTVAEGIESFKCLQMLRTFGCDEAQGYFLARPMVQEKFLARSAAQRFPLQEGHHHHHH", "soluble on expression in E. coli": "soluble"}, {"sequence": "MSLRRPYEALRGHFEKCLATPLRPMNLRTLAGNDKGYIHTAVEQLGARTARSYRAIYSEVQKRSLDREINARLSPLESICRREFECCVELSELAEVYLRKMERGEICDADTSQPNEIIDDAQVDSIMKGEGYGGSGNSGGDSSVKRLIDVLESLRPHENLFDIVVNEEWICSPNFNNWLSRFCTRRVSWRVIHEHLLHLVGPGRYSPIIRTDPNVGSILRHTGTVVVEQYVRSIQSIHGGSMFIHMEEQPDLFTRVPSGRLATSSKVDCPIFPTTSMPPAPSSRVIYSVEGHLEYVFRELMKNACLAMRSRTNSIELQVCFASNDTHVVVDVTDAAGGIAPDAVEKLWLFGWTTNSSFDNKMGGFGIGLPASKCYMDLWGGRIDLYTTEGVGTTVRVIFPKAPTEVFVPKGTEGHHHHHH", "soluble on expression in E. coli": "soluble"}, {"sequence": "MSLRSHFATQKDQWQTYTKEKKIKIGFDATFVPMGYEEKDGSYIGFDIDLANAVFKLYGIDVEWQAIDWDMKETELKNGTIDLIWNGYSVTDERKQSADFTEPYMVNEQVLVTKKSSGIDSVAGMAGKTLGAQAGSSGYDAFNASPKILKDVVANQKVVQYSTFTQALIDLNSGRIDGLLIDRVYANYYLEKSGVLDQYNVMPAGYEGESFAVGARKVDKTLIKKINQGFETLYKNGEFQKISNKWFGEDVATDQVKGKREGHHHHHH", "soluble on expression in E. coli": "soluble"}, {"sequence": "MSLRVAIEGCTQGHGTLDAIYASVEESCKQRGWDGVDILIIGGDFQSVRNAEDLSIMSCPVKYRHLGDFPKYYSGERKAPYLTIFIAGNHEASSHLWELYYGGWVAPNIYYMGAANILRFGPLRIAGLSGIWKGFDYRKPHHERLPFSGGDVKSWYHVREIDVRKLLQVQTQVDVGLSHDWPRAVELHGDHEWLFRKKPDFRNESRDGTLGSVAAEYVMDRLRPPHWFSAHMHVKFAAIKTYSEAQPEEGHHHHHH", "soluble on expression in E. coli": "soluble"}, {"sequence": "MSLSAIPPDAIDDESRDTLTGLAGIASASDWLDRNGAKGFVHAMLLGLHRFRSVNLAYGQSAGDIALVELAQRIRIFADEEIGGDTLVARVGGGDFLVASAGKVSRERWQWLAEALARRVSRVLPLRGEELQLAPRIALLRGQPGEGGPALLDRLDQALTTLQQQPARRLQWADGSHLARGRSAARLEADMIGAMARDEIGIVFQPQYAVAGGDIVGVEALARWDHPQLGRIGAETLFALAERGDHVAQVSRHIAGRAMWQAVEWKPVIPLSLNITAEDLGDDRLVEDCRLLLAQTGYPPSSLTVEVTEHALIADFERSAAALEQLARLGVRIALDDFGAGYANFRTLKALPVNTLKLDASLVRDIDRDPRDRAILRAIVAMARALGQKVVVEGIERESQLQVLAAEGCDAFQGFLRSGPIPADQIAALSREGHHHHHH", "soluble on expression in E. coli": "soluble"}, {"sequence": "MSLSCPRCGWVHYINPLPVAIALTVNRNNELLMIRRAHEPAFNEWALPGGFLEAGERPEEGCLRELFEETSLEGTIDKLIGVWHLESGLYGSLIAVAYRVIAAHERISINHEVFEAGFYRPDNMPPVRIPLHRQIIAESRWPERDLSLTEGHHHHHH", "soluble on expression in E. coli": "not soluble"}, {"sequence": "MSLSDLHTKYMGLTLRSPLVASAGPIQQKVDGVRALADAGVGAIVMYSLFEEQVRHEEARQAEIELEYMDSFAESLSFFPTVASNEGGITERYLAHLEASANAVDIPVIASLNGATNGGWVDTAKRMENAGAAGIECNIYMVPGDLEQSAEEVEDRHVEIVQAVKDAVSVPVAVKLSPFFSALGNMATRLDAAGADALVMFNRFLQPDINVETMQVEPGVWLSSPADARLPLTWIAVLSGRIGASLAASSGVESANDVVKYLLAGADVVMTTSALVRHGAGYATELQKGLESYLQRKEVDLDTLRGTLAVPNDASTAEYERNGYVAALEKAKTTYGEGHHHHHH", "soluble on expression in E. coli": "not soluble"}, {"sequence": "MSLSDRWDQTGLKTRVDGVLRSFLDEEAAHLAAVDAALAPVADQLRKAAGHGKRLRAAFCYWGWRAAGQPESDALVRAAASMELVHAAAVVHDDLIDDSRLRHGLPTAHVALEAVLARDGRPDARTAARSLAMLVGDQLMVLAGLLFTTSGLPAAYLARARDLWAVLARELVAGECLEILHTGGPPDTGTSLKVVRYKTAKYTVEHPLLIGGLLAGAAPALRDTYRAYALPLGEAFQLRDDLLGLFGDPERTGKASLDDLRAHRPTALLAETWKAADASQRQWLRRLLGRDDLDATHLHDVRRLMRELNAPQRVEQMIADRVERATRALDGAGTPPHARRALRELAQQATDRTHEGHHHHHH", "soluble on expression in E. coli": "soluble"}]}]}
